Test results as given in the supplement of paper PMC9876800.

System: peptide library, one residue held at a place counted from the S/T acceptor
Test: relative phosphorylation of the sub-library (ratio to the mean residue at this position); higher = residue favoured
Method in brief: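 Spots on streptavidin membranes were phosphorimaged and quantified by densitometry to measure phosphorylation of biotinylated degenerate peptide sub-libraries by purified recombinant kinases, human or orthologue constructs. The reactions ran in 384-well plates for 90 min under kinase-specific conditions, with peptides at 50 μM and 50 μM ATP spiked with γ-32P-ATP. Relative sub-library phosphorylation is the ratio to the mean residue at that position.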

PRKCE, construct: Full length, human (from UniProt Q02156)
relative phosphorylation
Details	at +1	at +2	at +3	at +4	at -1	at -2	at -3	at -4	at -5
A fixed	0.507	0.48	0.795	0.905	1.06	0.774	0.669	1.12	1.16
D fixed	0.169	0.162	0.342	0.375	0.373	0.296	0.223	0.455	0.383
E fixed	0.165	0.138	0.347	0.334	0.312	0.308	0.235	0.558	0.35
F fixed	1.7	0.528	0.831	0.561	0.588	0.69	0.691	0.783	1.28
G fixed	0.525	0.366	1.01	0.967	1.59	0.908	0.731	1.08	1.05
H fixed	0.66	1.02	1.25	1.16	0.936	1.1	1.09	1.16	1.12
I fixed	1.43	0.515	0.619	0.6	0.44	0.393	0.435	0.689	0.935
K fixed	2.1	4.18	2.99	3.19	2.52	2.35	2.17	2.11	1.67
L fixed	1.15	0.441	0.746	0.567	0.679	0.425	0.466	0.639	0.934
M fixed	1.18	0.566	0.581	0.62	0.813	0.528	0.545	0.833	0.744
N fixed	0.577	0.501	0.661	0.921	0.997	0.834	0.552	0.822	0.665
P fixed	0.473	0.357	0.604	1.07	1.21	0.623	0.708	0.919	0.921
Q fixed	1.01	0.543	0.7	0.931	0.949	0.957	0.64	0.894	0.753
R fixed	2.4	4.74	3.01	2.59	2.49	4.46	5.89	2.3	1.93
V fixed	1.32	0.537	0.67	0.634	0.611	0.529	0.413	0.808	0.757
W fixed	0.717	0.516	0.891	0.961	0.471	1.12	0.613	1.02	1.39
Y fixed	0.928	1.4	0.95	0.607	0.968	0.701	0.934	0.82	0.956
pThr fixed	0.851	0.471	0.573	0.688	0.378	0.561	0.657	0.799	0.932
pTyr fixed	0.505	0.525	0.731	0.569	0.528	0.535	0.678	0.625	0.989
